These results are taken from publication doi:10.1101/2023.06.16.545277, “VAMP2 regulates phase separation of alpha-synuclein” (bioRxiv, 2023).

The target in this experiment is wild-type human full-length alpha-synuclein (human, UniProt P37840 1-140). Briefly: NMR titration; 1H-15N-BEST-TROSY chemical shift perturbation; 40 μM 15N-labelled aSYN fixed, peptide titrated; 20 mM phosphate buffer, pH 7.0, 10% 2H2O, 298 K. As to conditions: both partners purified.

B1: JMD long peptide (peptide)
peptide: KLKRKYWWKNLKMM
notes: VAMP2, full length of the juxtamembrane (JM) domain, aa 83-96; also called native JMD long peptide; JM-domain of VAMP2, aa 83-96; source: synthetic peptide (custom synthesis, Proteogenix)
Regarding B1, the binding result is reported as “binds”.
